Reference: US20110160440A1 (GENENCOR INTERNATIONAL, published 2011)

T1: CEA (carcinoembryonic antigen, Biodesign Intl., Saco, Me.) (UniProt P06731 35-685)
T1 construct: also called immobilized CEA
T1 sequence: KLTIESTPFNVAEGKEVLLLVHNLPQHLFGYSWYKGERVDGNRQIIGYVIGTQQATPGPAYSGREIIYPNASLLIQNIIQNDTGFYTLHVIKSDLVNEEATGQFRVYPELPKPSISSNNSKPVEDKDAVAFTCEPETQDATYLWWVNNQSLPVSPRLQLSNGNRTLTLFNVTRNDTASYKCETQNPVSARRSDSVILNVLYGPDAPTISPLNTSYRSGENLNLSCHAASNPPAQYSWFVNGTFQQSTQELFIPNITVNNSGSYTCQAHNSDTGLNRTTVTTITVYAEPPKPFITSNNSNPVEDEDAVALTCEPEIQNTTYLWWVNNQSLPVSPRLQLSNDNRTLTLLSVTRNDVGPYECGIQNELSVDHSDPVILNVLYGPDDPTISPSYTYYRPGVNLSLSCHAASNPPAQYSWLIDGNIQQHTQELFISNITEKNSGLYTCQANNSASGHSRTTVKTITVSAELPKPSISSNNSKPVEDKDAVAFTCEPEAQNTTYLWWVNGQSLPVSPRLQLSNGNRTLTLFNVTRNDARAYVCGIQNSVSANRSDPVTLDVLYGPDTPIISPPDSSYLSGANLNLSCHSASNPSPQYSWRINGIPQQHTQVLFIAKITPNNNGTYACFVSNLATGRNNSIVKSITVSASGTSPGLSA


target: T1, CEA (carcinoembryonic antigen, …); experiment: CEA-coated plate, bound BLA activity (nitrocefin), cell lysate

Binder | binding result
NA05.12 (scFv) QVQLQQSGAELVRPGTSVKLSCTASGFNIKDSYMHWVRQGPEQGLEWIGWIDPENGDTEYAPKFQGKATFTTDTSSNTAYLQLSSLTSEDTAVYYCNEGTPTGPYYFDYWGQGTTVTVSSGGGGSGGGGSGGGGSENVLTQSPAIVSASPGEKVTITCSASSSVSYMHWFQQKPGTSPKLWIYSTSNLASGVPARFSGSGSGTSYSLTISRMEAEDAATYYCQQRSSYPLTFGAGTKLELKRAATPVSEKQLAEVVANTITPLMKAQSVPGMAVAVIYQGKPHYYTFGKADIAANKPVTPQTLFELGSISKTFTGVLGGDAIARGEISLDDAVTRYWPQLTGKQWQGIRMLDLATYTAGGLPLQVPDEVTDNASLLRFYQNWQPQWKPGTTRLYANASIGLFGALAVKPSGMPYEQAMTTRVLKPLKLDHTWINVPKAEEAHYAWGYRDGKAVRVSPGMLDAQAYGVKTNVQDMANWVMANMAPENVADASLKQGIALAQSRYWRIGSMYQGLGWEMLNWPVEANTVVETSFGNVALAPLPVAEVNPPAPPVKASWVHKTGSTGGFGSYVAFIPEKQIGIVMLANTSYPNPARVEAAYHILEALQ | binds
NA05.15 (scFv) QVKLQQSGAELVRSGTSVKLSCTASGFNIKDSYMHWLRQGPEQGLEWIGWIDPENGDTEYAPKFQGKATFTTDTSSNTAYLQLSSLTSEDTAVYYCNEGTPTGPYYFDYWGQGTTVTVSSGGGGSGGGGSGGGGSENVLTQSPAIVSASPGEKVTITCSASSSVSYMHWYQQKPGTSPKLWIYSTSNLASGVPDRFSGSGSGTSYSLTISRMEAEDAATYYCQQRSSYPLTFGAGTKLELKRAATPVSEKQLAEVVANTITPLMKAQSVPGMAVAVIYQGKPHYYTFGKADIAANKPVTPQTLFELGSISKTFTGVLGGDAIARGEISLDDAVTRYWPQLTGKQWQGIRMLDLATYTAGGLPLQVPDEVTDNASLLRFYQNWQPQWKPGTTRLYANASIGLFGALAVKPSGMPYEQAMTTRVLKPLKLDHTWINVPKAEEAHYAWGYRDGKAVRVSPGMLDAQAYGVKTNVQDMANWVMANMAPENVADASLKQGIALAQSRYWRIGSMYQGLGWEMLNWPVEANTVVETSFGNVALAPLPVAEVNPPAPPVKASWVHKTGSTGGFGSYVAFIPEKQIGIVMLANTSYPNPARVEAAYHILEALQ | binds

target: T1, CEA (carcinoembryonic antigen, …); experiment: CEA-coated plate after thermolysin treatment of the lysate, bound BLA activity

Binder | binding result
NA06.10 (scFv) QVKLQQSGAELVKSGGSVKLSCTASGFNIKDSYMHWVRQGPEQGLEWIGWIDPENGDTEYAPKFQGKATFTTDTSSNTAYLQLSSLTSEDTAVYYCNEGTPTGPYYFDYWGQGTTVTVSSGGGGSGGGGSGGGGSENVLTQSPAIVSASPGEKVTITCSASSSVSYMHWFQQKPGTSPKLVIYSTSNLASGVPDRFSGSGSGTSYSLTISRMEAEDAATYYCQQRSSYPLTFGAGTKLELKRAATPVSEKQLAEVVANTITPLMKAQSVPGMAVAVIYQGKPHYYTFGKADIAANKPVTPQTLFELGSISKTFTGVLGGDAIARGEISLDDAVTRYWPQLTGKQWQGIRMLDLATYTAGGLPLQVPDEVTDNASLLRFYQNWQPQWKPGTTRLYANASIGLFGALAVKPSGMPYEQAMTTRVLKPLKLDHTWINVPKAEEAHYAWGYRDGKAVRVSPGMLDAQAYGVKTNVQDMANWVMANMAPENVADASLKQGIALAQSRYWRIGSMYQGLGWEMLNWPVEANTVVETSFGNVALAPLPVAEVNPPAPPVKASWVHKTGSTGGFGSYVAFIPEKQIGIVMLANTSYPNPARVEAAYHILEALQ | binds
NA06.2 (scFv) QVKLQQSGAELVKSGGSVKLSCTASGFNIKDSYMHWVRQGPGQGLEWIGWIDPENGDTEYAPKFQGKATFTTDTSSNTAYLQLSSLTSEDTAVYYCNEGTPTGPYYFDYWGQGTTVTVSSGGGGSGGGGSGGGGSENVLTQSPAIMSASPGEKVTITCSASSSVSYMHWFQQKPGTSPKLVIYSTSNLASGVPDRFSGSGSGTSYSLTISRMEAEDAATYYCQQRSSYPLTFGAGTKLELKRAATPVSEKQLAEVVANTITPLMKAQSVPGMAVAVIYQGKPHYYTFGKADIAANKPVTPQTLFELGSISKTFTGVLGGDAIARGEISLDDAVTRYWPQLTGKQWQGIRMLDLATYTAGGLPLQVPDEVTDNASLLRFYQNWQPQWKPGTTRLYANASIGLFGALAVKPSGMPYEQAMTTRVLKPLKLDHTWINVPKAEEAHYAWGYRDGKAVRVSPGMLDAQAYGVKTNVQDMANWVMANMAPENVADASLKQGIALAQSRYWRIGSMYQGLGWEMLNWPVEANTVVETSFGNVALAPLPVAEVNPPAPPVKASWVHKTGSTGGFGSYVAFIPEKQIGIVMLANTSYPNPARVEAAYHILEALQ | binds
NA06.12 (scFv) QVKLQQSGAELVKSGGSVKLSCTASGFNIKDSYMHWVRQGPEQGLEWIGWIDPENGDTEYAPKFQGKATFTTDTSSNTAYLQLSSLTSEDTAVYYCNEGTPTGPYYFDYWGQGTTVTVSSGGGGSGGGGSGGGGSQNVLTQSPAIMSASPGEKVTITCSASSSVSYMHWFQQKPGTSPKLVIYSTSNLASGVPARFSGSGSGTSYSLTISRMEAEDAATYYCQQRSSYPLTFGAGTKLELKRAATPVSEKQLAEVVANTITPLMKAQSVPGMAVAVIYQGKPHYYTFGKADIAANKPVTPQTLFELGSISKTFTGVLGGDAIARGEISLDDAVTRYWPQLTGKQWQGIRMLDLATYTAGGLPLQVPDEVTDNASLLRFYQNWQPQWKPGTTRLYANASIGLFGALAVKPSGMPYEQAMTTRVLKPLKLDHTWINVPKAEEAHYAWGYRDGKAVRVSPGMLDAQAYGVKTNVQDMANWVMANMAPENVADASLKQGIALAQSRYWRIGSMYQGLGWEMLNWPVEANTVVETSFGNVALAPLPVAEVNPPAPPVKASWVHKTGSTGGFGSYVAFIPEKQIGIVMLANTSYPNPARVEAAYHILEALQ | binds
NA06.4 (scFv) QVKLQQSGAELVKSGGSVKLSCTASGFNIKDSYMHWVRQGPEQGLEWIGWIDPENGDTEYAPKFQGKATFTTDTSSNTAYLQLSSLTSEDTAVYYCNEGTPTGPYYFDYWGQGTTVTVSSGGGGSGGGGSGGGGSENVLTQSPAIVSASPGEKVTITCSASSSVSYMHWFQQKPGTSPKLVIYSTSNLASGVPARFSGSGSGTSYSLTISRMEAEDAATYYCQQRSSYPLTFGAGTKLELKRAATPVSEKQLAEVVANTITPLMKAQSVPGMAVAVIYQGKPHYYTFGKADIAANKPVTPQTLFELGSISKTFTGVLGGDAIARGEISLDDAVTRYWPQLTGKQWQGIRMLDLATYTAGGLPLQVPDEVTDNASLLRFYQNWQPQWKPGTTRLYANASIGLFGALAVKPSGMPYEQAMTTRVLKPLKLDHTWINVPKAEEAHYAWGYRDGKAVRVSPGMLDAQAYGVKTNVQDMANWVMANMAPENVADASLKQGIALAQSRYWRIGSMYQGLGWEMLNWPVEANTVVETSFGNVALAPLPVAEVNPPAPPVKASWVHKTGSTGGFGSYVAFIPEKQIGIVMLANTSYPNPARVEAAYHILEALQ | binds
NA06.11 (scFv) QVQLQQSGAELVKSGGSVKLSCTASGFNIKDSYMHWVRQGPEQGLEWIGWIDPENGDTEYAPKFQGKATFTTDTSSNTAYLQLSSLTSEDTAVYYCNEGTPTGPYYFDYWGQGTTVTVSSGGGGSGGGGSGGGGSENVLTQSPAIMSASPGEKVTITCSASSSVSYMHWFQQKPGTSPKLVIYSTSNLASGVPDRFSGSGSGTSYSLTISRMEAEDAATYYCQQRSSYPLTFGAGTKLELKRAATPVSEKQLAEVVANTITPLMKAQSVPGMAVAVIYQGKPHYYTFGKADIAANKPVTPQTLFELGSISKTFTGVLGGDAIARGEISLDDAVTRYWPQLTGKQWQGIRMLDLATYTAGGLPLQVPDEVTDNASLLRFYQNWQPQWKPGTTRLYANASIGLFGALAVKPSGMPYEQAMTTRVLKPLKLDHTWINVPKAEEAHYAWGYRDGKAVRVSPGMLDAQAYGVKTNVQDMANWVMANMAPENVADASLKQGIALAQSRYWRIGSMYQGLGWEMLNWPVEANTVVETSFGNVALAPLPVAEVNPPAPPVKASWVHKTGSTGGFGSYVAFIPEKQIGIVMLANTSYPNPARVEAAYHILEALQ | binds
